Experimental data as given in patent publication US20240400677A1 (ELECTRA THERAPEUTICS, published 2024).
Numbering of substitutions follows the chain as printed.

T1: Cynomolgus Monkey SIRPγ (plate-coated extracellular domain)
T1 construct: also called Cyno SIRPγ
T1 extracellular domain: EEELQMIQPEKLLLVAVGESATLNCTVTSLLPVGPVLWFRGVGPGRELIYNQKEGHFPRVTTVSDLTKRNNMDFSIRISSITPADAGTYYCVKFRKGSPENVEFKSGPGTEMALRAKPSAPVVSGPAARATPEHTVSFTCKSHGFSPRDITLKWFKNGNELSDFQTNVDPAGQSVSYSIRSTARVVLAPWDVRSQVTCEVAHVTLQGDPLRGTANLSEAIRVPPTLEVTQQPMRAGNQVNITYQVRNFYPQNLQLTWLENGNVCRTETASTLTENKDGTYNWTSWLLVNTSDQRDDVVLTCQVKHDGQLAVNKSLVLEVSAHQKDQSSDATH

T2: cynomolgus monkey SIRPγ-His monomer protein (cynomolgus monkey, UniProt Q9P1W8 29-359 (human entry), limits assumed)
T2 construct: also called Cyno SIRPγ; Cyno SIRPγ-His
T2 chain: T1 extracellular domain

T3: cynomolgus monkey SIRPγ on CHO cells (cynomolgus monkey, UniProt Q9P1W8 29-386 (human entry))
T3 construct: also called Cyno SIRPγ CHO
T3 chain: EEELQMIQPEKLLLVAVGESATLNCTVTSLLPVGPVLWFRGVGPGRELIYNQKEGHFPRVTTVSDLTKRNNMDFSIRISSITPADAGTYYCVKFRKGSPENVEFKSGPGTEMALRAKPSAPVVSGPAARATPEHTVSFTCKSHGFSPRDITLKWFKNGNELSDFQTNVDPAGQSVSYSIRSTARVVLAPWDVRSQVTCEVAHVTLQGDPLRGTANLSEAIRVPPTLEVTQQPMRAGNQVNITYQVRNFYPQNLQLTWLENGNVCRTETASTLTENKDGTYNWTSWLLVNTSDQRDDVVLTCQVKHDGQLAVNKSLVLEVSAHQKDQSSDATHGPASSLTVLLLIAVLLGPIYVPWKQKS

T4: cynomolgus monkey SIRPα on CHO cells (cynomolgus monkey, UniProt A0A2K5VYQ9 31-507)
T4 construct: whole, on cells; also called Cyno SIRPα CHO
T4 sequence: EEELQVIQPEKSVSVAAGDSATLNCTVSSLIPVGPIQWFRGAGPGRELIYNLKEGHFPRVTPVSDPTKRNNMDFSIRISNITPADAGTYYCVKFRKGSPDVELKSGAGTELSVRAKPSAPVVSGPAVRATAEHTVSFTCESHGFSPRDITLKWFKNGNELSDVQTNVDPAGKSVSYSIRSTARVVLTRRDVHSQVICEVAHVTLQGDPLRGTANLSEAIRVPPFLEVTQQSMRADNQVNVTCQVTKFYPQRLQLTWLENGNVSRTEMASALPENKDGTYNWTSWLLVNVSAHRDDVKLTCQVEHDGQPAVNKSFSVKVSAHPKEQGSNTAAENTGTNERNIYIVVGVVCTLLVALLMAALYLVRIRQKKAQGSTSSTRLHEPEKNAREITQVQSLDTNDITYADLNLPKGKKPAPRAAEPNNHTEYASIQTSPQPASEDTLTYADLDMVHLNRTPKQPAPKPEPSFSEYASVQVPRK

B1: Antibody 6 (antibody, V domains shown)
VH: QVQLVQSGAEVKKPGASVKVSCKASGYTFTGYHIHWVRQAPGQGLEWMGWINPNSGGTNYAQKFQGRVTMTRDTSINTAYMELNRLRSDDTAVFYCARERVGYCSRPSCLDDLNIWGQGTMVTVSS
VL: DIQMTQSPSTLSASVGDRVTITCRASQSISSWLAWYQQKPGKAPKLLIYKASSLETGVPSRFSGSGSGTEFTLTISSLQPDDFATYYCQQYDSYYTFGQGTKLEIK
B2: Antibody 5 (antibody, V domains shown)
VH: B1 VH
VL: B1 VL
B3: Antibody 88 (antibody, V domains shown)
VH: QVQLVQSGAEVKKPGASVKVSCKASGYTFTSHDINWVRQAPGQGLEWMGWMNANNGNAGYAQKFQGRVTMTRDTSTSTVYMELSSLRSEDTAVYYCAKDLSPSSSWSTYYYYYGMDVWGQGTMVTVSS
VL: DIQMTQSPSSLSASVGDRVTITCRASQSISNLLAWYQQKPGKAPKLLIYAASSLQSGVPSRFSGSGSGTDFTLTISSLQPEDFATYYCQQSYSTPYTFGQGTKLEIK
B4: Antibody 95 (antibody, V domains shown)
VH: QVQLVQSGAEVKKPGASVKVSCKASGYTFTSYYMHWVRQAPGQGLEWMGWMNPNSGNTGYAQKFQGRVTMTRDTSTSTVYMELSSLRSEDTAVYYCARDQMYSSYGMDVWGQGTTVTVSS
VL: B3 VL with Q27E, S30T, L32W, A50K, Q55E, S93G, L104V
B5: Antibody 64 (antibody, V domains shown)
VH: QVQLVQSGAEVKKPGASVKVSCKASGYTFTSYYMHWVRQAPGQGLEWMGRINPNSGGTKYAQKFQGRVTMTRDTSTSTVYMELSSLRSEDTAVYYCARLGSAYFDLWGRGTLVTVSS
VL: DIQMTQSPSSLSASVGDRVTITCRASQSVDTWLAWYQQKPGKAPKLLIYEASTLESGVPSRFSGSGSGTDFTLTISSLQPEDFATYYCQQANSFPITFGQGTRLEIK
B6: Antibody 84 (antibody, V domains shown)
VH: QVQLVQSGAEVKKPGASVKVSCKASGYTFTSYYMHWVRQAPGQGLEWMGWINPNSGNAGFAQKFQGRVTMTRDTSTSTVYMELSSLRSEDTAVYYCARGPVYSYGPFDYWGQGTLVTVSS
VL: B3 VL with S28G, N31T, L32Y, S53T, Y92H, T94A, Y96I, L104V
B7: Antibody 97 (antibody, V domains shown)
VH: QVQLVQSGAEVKKPGASVKVSCKASGHTFNNNYIHWVRQAPGQGLEWMGIINPSGGSTSYAQKFQGRVTMTRDTSTSTVYMELSSLRSEDTAVYYCARQIQDYGYYYYGMDVWGQGTTVTVSS
VL: EIVMTQSPATLSVSPGERATLSCRASQSVSKYLAWYQQKPGQAPRLLIYAISARAAGIPARFSGSGSGTEFTLTISSLQSEDFAVYYCQQYYSSPPTFGQGTKVEIK
B8: Antibody 94 (antibody, V domains shown)
VH: QVQLVQSGAEVKKPGASVKVSCKASGYTFTSYGISWVRQAPGQGLEWMGWISAYNGNTNYAQKFQGRVTMTRDTSTSTVYMELSSLRSEDTAVYYCARGTYYDYIWGSYRYSWFDYWGQGTLVTVSS
VL: not shown
B9: Antibody 54 (antibody, V domains shown)
VH: QVQLVQSGAEVKKPGASVKVSCKASGYSFSDYYMHWVRQAPGQGLEWMGWMSPNSGNTGYAQKFQGRVTMTRDTSTSTVYMELSSLRSEDTAVYYCARQREEYGHYYYGMDVWGQGTMVTVSS
VL: EIVMTQSPATLSVSPGERATLSCRASQSLGSTYLAWYQQKPGQAPRLLIYGASTRATGIPARFSGSGSGTEFTLTISSLQSEDFAVYYCQQYYSSPPTFGQGTKVEIK

These binders were tested against T5, human SIRPγ on primary human T-cells (human, UniProt Q9P1W8 29-387) (assay: flow cytometry, dye-conjugated antibody, human whole blood (3 donors)).
T5 construct: endogenous SIRPγ of donor T-cells; also called SIRPγ on T-cells
T5 sequence (Q9P1W8 29-387 limits assumed): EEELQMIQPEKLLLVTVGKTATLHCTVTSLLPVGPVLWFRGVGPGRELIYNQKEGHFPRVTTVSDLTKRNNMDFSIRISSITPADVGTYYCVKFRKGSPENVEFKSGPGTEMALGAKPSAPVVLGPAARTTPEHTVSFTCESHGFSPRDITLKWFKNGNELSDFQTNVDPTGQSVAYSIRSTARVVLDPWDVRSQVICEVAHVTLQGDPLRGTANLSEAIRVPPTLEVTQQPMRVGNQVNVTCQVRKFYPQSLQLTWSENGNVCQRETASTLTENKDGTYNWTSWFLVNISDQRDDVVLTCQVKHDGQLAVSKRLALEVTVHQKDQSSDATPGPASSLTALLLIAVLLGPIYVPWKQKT
Description: Selected antibodies and an isotype control were tested for binding to human T-cells, B-cells, NK cells, monocytes, and granulocytes. […] Up to 50 μg/mL fluorescent dye-conjugated antibodies or isotype controls were incubated with whole blood from three normal donors. T-cells were identified as the CD14−, CD20−, SSClow, and CD3+ population or further identified to be CD4+ or CD8+ populations. B-cells were identified as the CD14−, SSClow, and CD20+ population. NK cells were identified as CD14−, CD20−, CD3−, and CD56+. Monocytes were identified as the SSClow and CD14+ population. Granulocytes were identified as the CD14−, CD20−, CD3−, SSChigh population. Graphs depict the median fluorescence intensity (MFI) of each population.
B1 was tested, and the “EC50 (read off the curve)” value was ~0.1 µg/mL.
In the case of B2, the “EC50 (read off the curve)” value is reported as ~0.1 µg/mL.

These binders were tested against T6, extracellular binding domain of human SIRPγ (plate-coated) (human, UniProt Q9P1W8 29-360) (assay: ELISA, coated SIRP ECD (2 µg/mL), anti-human IgG, luminescence).
T6 construct: also called hSIRPγ
T6 sequence (Q9P1W8 29-360 limits assumed): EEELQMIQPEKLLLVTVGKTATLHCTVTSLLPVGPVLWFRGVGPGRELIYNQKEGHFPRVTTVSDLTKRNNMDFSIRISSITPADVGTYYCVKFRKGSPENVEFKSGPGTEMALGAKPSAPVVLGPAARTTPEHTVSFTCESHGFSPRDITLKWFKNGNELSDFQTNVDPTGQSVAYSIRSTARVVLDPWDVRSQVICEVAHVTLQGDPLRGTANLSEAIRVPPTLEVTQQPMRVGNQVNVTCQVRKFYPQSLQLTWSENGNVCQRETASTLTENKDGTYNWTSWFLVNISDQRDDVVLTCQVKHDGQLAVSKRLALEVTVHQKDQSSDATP
In short: (§1)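 Plate-coated SIRP extracellular domain (2 μg/mL), blocked, then exposed to purified antibodies in titration, after transient expression in Expi293F cells for 5 days and Protein A purification. Bound antibody is detected with anti-human IgG and a chemiluminescent substrate, and reported as relative luminescence units.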
With B1 the “EC50 (read off the curve)” value was ~0.02 µg/mL.
With B2 the “EC50 (read off the curve)” value was ~0.02 µg/mL.
B3 was tested, and the “EC50 (read off the curve)” value was ~0.04 µg/mL.
For B4, the “EC50 (read off the curve)” value was ~0.07 µg/mL.

Target: T1, Cynomolgus Monkey SIRPγ (plate-coated …)
Test: as above
In short: as §1
For B1, the “EC50 (read off the curve)” value was ~0.1 µg/mL.
In the case of B2, the “EC50 (read off the curve)” value is reported as ~0.07 µg/mL.
B5: binds.

Each binder was assayed against T7, bivalent human SIRPγ protein with mouse Fc (human, UniProt Q9P1W8 29-360) (assay: BLI Octet, antibody on AHC, global 1:2 model).
T7 construct: also called Human SIRPγ-mFc
T7 sequence (Q9P1W8 29-360 limits assumed): as above
Description: (§2) Antibodies were coated onto anti-human Fc capture (AHC) biosensors. SIRP-His monomer protein or bivalent SIRP protein with mouse Fc at four concentrations (200 nM, 100 nM, 50 nM, 25 nM) were exposed to the biosensor to measure on-rate kinetics of SIRP antibodies binding to SIRP protein. The biosensors were then exposed to wash buffer to measure off-rate kinetics. The resulting kinetic data were analyzed and fitted using a global 1:2 binding model.
A Kd of 50.6 nM was found for B3 in this work.
A Kd of 2050 nM was found for B6 in this work.
A Kd of 1280 nM was found for B4 in this work.
A Kd of 48.4 nM was found for B7 in this work.
A Kd of 80.2 nM was found for B8 in this work.

The binders below were run against T8, human SIRPγ-His monomer protein (human, UniProt Q9P1W8 29-360) (assay: BLI Octet, antibody on AHC, global 1:2 model).
T8 construct: also called hSIRPγ
T8 sequence (Q9P1W8 29-360 limits assumed): as above
Description: as §2
A Kd of 136 nM was found for B3 in this work.
A Kd of 193 nM was found for B4 in this work.
A Kd of 362 nM was found for B7 in this work.
A Kd of 30.1 nM was found for B8 in this work.

Target: T2, cynomolgus monkey SIRPγ-His monomer …
Test: BLI Octet, antibody on AHC, global 1:2 model
Description: as §2
A Kd of 67.8 nM was found for B3 in this work.
A Kd of 34.1 nM was found for B6 in this work.
A Kd of 40.3 nM was found for B4 in this work.
A Kd of 16.3 nM was found for B7 in this work.
A Kd of 42.6 nM was found for B8 in this work.

What follows are binders tested against T6, extracellular binding domain of human … (assay: competition ELISA, coated SIRPγ ECD, antibody 1 h then 10 µg/mL biotinylated CD47-Fc (blocked ligand), streptavidin-HRP).
Description: To carry out the competition experiment, the extracellular binding domain of SIRPγ was coated onto a high protein-binding plate and blocked. A titration of each SIRPγ antibody was incubated on the plate for 1 hour. […] Following a wash, streptavidin-HRP was added. The plate was washed again and developed using a chemiluminescent substrate. The plate was read on a plate reader to assess luminescence. […] A known blocker antibody was used as a positive control.
For B3, the “IC50 (read off the curve)” value was ~0.4 µg/mL.
In the case of B6, the “IC50 (read off the curve)” value is reported as ~0.2 µg/mL.
For B4, the “IC50 (read off the curve)” value was ~1 µg/mL.
With B7 the “IC50 (read off the curve)” value was ~0.3 µg/mL.
With B8 the “IC50 (read off the curve)” value was ~0.2 µg/mL.
For B5, the “IC50 (read off the curve)” value was ~0.2 µg/mL.
With B9 the “IC50 (read off the curve)” value was ~0.1 µg/mL.

Target: T3, cynomolgus monkey SIRPγ on CHO cells
Test: flow cytometry, CHO transfectants, anti-human IgG
In short: (§3)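 Flow cytometry on stable CHO transfectants; antibody titration; fluorescent anti-human IgG detection; MFI per concentration. myc-tagged scFv: crude PPE on SIRP-expressing CHO and parental CHO-K1; fold change <2.0 = non-binder.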
With B6 the “EC50 (read off the curve)” value was ~0.2 µg/mL.
For B5, the “EC50 (read off the curve)” value was ~0.4 µg/mL.
In the case of B9, the “EC50 (read off the curve)” value is reported as ~0.8 µg/mL.

What follows are binders tested against T9, human SIRPγ on stably transfected CHO cells (human, UniProt Q9P1W8 29-387) (assay: flow cytometry, CHO transfectants, anti-human IgG).
T9 construct: also called Human SIRPγ CHO
T9 sequence (Q9P1W8 29-387 limits assumed): as the sequence (Q9P1W8 29-387 limits assumed) above
In short: as §3
B3 was tested, and the “EC50 (read off the curve)” value was ~0.7 µg/mL.
For B6, the “EC50 (read off the curve)” value was ~0.2 µg/mL.
With B5 the “EC50 (read off the curve)” value was ~0.1 µg/mL.
B9 was tested, and the “EC50 (read off the curve)” value was ~0.9 µg/mL.

What follows are binders tested against T10, human SIRPβ1 on CHO cells (co-transfected with DAP12) (human, UniProt O00241 30-398) (assay: flow cytometry, CHO transfectants, anti-human IgG).
T10 construct: whole, on cells; co-transfected with DAP12; also called Human SIRPβ1 CHO
T10 sequence (O00241 30-398): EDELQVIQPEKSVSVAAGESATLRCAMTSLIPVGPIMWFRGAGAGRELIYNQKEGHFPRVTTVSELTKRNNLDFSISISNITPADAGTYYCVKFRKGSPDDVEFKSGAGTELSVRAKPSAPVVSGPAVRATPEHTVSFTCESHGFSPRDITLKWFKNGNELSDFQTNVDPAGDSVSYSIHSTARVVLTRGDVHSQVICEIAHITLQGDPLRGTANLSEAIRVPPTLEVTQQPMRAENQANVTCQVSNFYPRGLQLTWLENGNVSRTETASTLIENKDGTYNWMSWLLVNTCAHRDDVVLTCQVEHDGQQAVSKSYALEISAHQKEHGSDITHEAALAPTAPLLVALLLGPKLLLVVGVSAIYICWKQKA
In short: as §3
B3: no binding (tested: about 30 µg/mL).
B6: no binding (tested: about 30 µg/mL).
B4: no binding (tested: about 30 µg/mL).
B7: no binding (tested: about 30 µg/mL).
B8: no binding (tested: about 30 µg/mL).
B9: no binding (tested: about 20 µg/mL).

Each binder was assayed against T4, cynomolgus monkey SIRPα on CHO cells (assay: flow cytometry, CHO transfectants, anti-human IgG).
In short: as §3
B3: no binding (tested: about 30 µg/mL).
B6: no binding (tested: about 30 µg/mL).
B4: no binding (tested: about 30 µg/mL).
B7: no binding (tested: about 30 µg/mL).
B8: no binding (tested: about 30 µg/mL).
B5: no binding (tested: about 20 µg/mL).
B9: no binding (tested: about 20 µg/mL).
